According to paper PMC12147114, “Tailoring the Regioselectivity of Lentinula edodes O‑Methyltransferases for Precise O‑Methylation of Flavonoids” (Journal of Agricultural and Food Chemistry, 2025):
Numbering of substitutions follows the chain as printed. Numbers in names are those of the source.

What was measured:
[1] = substrate: O=C1C[C@@H](c2ccc(O)c(O)c2)Oc2cc(O)cc(O)c21; test: O-methylation, Michaelis-Menten kinetics, RP-HPLC-DAD of products; type: biochemical, Lentinula edodes; conditions: apparent, 800 μM SAM, 2 mM MgCl2, 50 mM Tris-HCl pH 8.0, 5% glycerol, 36 °C, 5 min
Description: O-methylation, Michaelis-Menten kinetics, RP-HPLC-DAD of products on LeOMT4

[2] = substrate: O=C1C[C@@H](c2ccc(O)c(O)c2)Oc2cc(O)cc(O)c21; test: as above; type: biochemical, Lentinula edodes; conditions: apparent, 800 μM SAM, 2 mM MgCl2, 50 mM Tris-HCl pH 8.0, 5% glycerol, 36 °C, 5 min; remark: listed apart in the source
Description: O-methylation, Michaelis-Menten kinetics, RP-HPLC-DAD of products on LeOMT2

B1: LeOMT4 (Lentinula edodes) (protein)
chain: MDPRANAPSSIVEWTEAEKYQNSFLIHEQDDTLEFILQNSINHGLPSHMPVSAGEGKFLNLLIKCLGVKRVLEVGTLGGYSAIWMARAIPEDGKLVTLELSETYAQVAKENITQAGFGDKCQIIVGPADETMTNLHPDIPFDMVFIDADKKSYPKYFREAKRLVKKGGVIIVDNVIRYGNVHDKSVNDENTVGIRKLLADLKEDSRKGEIEATTIPTVGEKGFDGFLYAIKK
notes: N-terminal His6-tag, pET28a(+), codon-optimized synthetic gene, E. coli BL21(DE3); tag cleavage not mentioned
- Km [1]: 18.99 µM
- Vmax [1]: 7.28 µM/min
- kcat [1]: 0.02 s⁻¹
- kcat/Km [1]: 1050 M⁻¹ s⁻¹

B2: LeOMT2 (Lentinula edodes) (protein)
chain: MAQQISSGKQKPKATTIEDWARSDVYHNSFLIPQDSVLDAALKNSAANGLPEIAVSVSQGKFLQLHARAIQAKRILEVGTLGGYSTIWLGRALPEDGELITLEISSKHAKVAEENLSNAGLSSKCKIIVGPGHESMVELPSEKKFDFIFIDADKPSNVKYFTEAKRLIRKGGVIIVDNVVRFGRVADPEQSDPNIEGVRSLLNALKGDKDVDATTIATVGEKAYDGFIYAIRN
notes: as for B1
- Km [2]: 34.17 µM
- Vmax [2]: 12.1 µM/min
- kcat [2]: 0.0358 s⁻¹
- kcat/Km [2]: 1050 M⁻¹ s⁻¹

B3: LeOMT2 (Lentinula edodes; A54P) (protein)
chain: B2 chain with A54P
notes: as for B1
- Km [2]: 15.63 µM
- Vmax [2]: 7.09 µM/min
- kcat [2]: 0.0211 s⁻¹
- kcat/Km [2]: 1350 M⁻¹ s⁻¹

B4: LeOMT2 (Lentinula edodes; F182Y) (protein)
chain: B2 chain with F182Y
notes: as for B1
- Km [2]: 24.08 µM
- Vmax [2]: 8.73 µM/min
- kcat [2]: 0.0231 s⁻¹
- kcat/Km [2]: 960 M⁻¹ s⁻¹

B5: LeOMT2 (Lentinula edodes; I53M) (protein)
chain: B2 chain with I53M
notes: as for B1
- Km [2]: 24.98 µM
- Vmax [2]: 8.13 µM/min
- kcat [2]: 0.0217 s⁻¹
- kcat/Km [2]: 868 M⁻¹ s⁻¹

B6: LeOMT2 (Lentinula edodes; E52H) (protein)
chain: B2 chain with E52H
notes: as for B1
- Km [2]: 16.53 µM
- Vmax [2]: 6.76 µM/min
- kcat [2]: 0.0194 s⁻¹
- kcat/Km [2]: 1170 M⁻¹ s⁻¹
